US20050287636

Sequence of proapoA-I-V156K (chain, as listed by the source V156K): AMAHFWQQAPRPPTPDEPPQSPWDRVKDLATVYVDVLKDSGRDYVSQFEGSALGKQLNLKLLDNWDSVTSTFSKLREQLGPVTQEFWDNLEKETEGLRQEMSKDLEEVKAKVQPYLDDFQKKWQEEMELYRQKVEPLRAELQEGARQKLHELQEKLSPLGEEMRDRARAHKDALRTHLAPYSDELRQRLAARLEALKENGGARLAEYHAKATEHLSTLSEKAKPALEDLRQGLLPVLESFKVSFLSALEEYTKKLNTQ
Sequence of wild-type (WT) proapoA-I (chain, as listed by the source): as the sequence (chain, as listed by the source V156K) above, with K171V counted along it
Sequence of proapoA-I-A158E (chain, as listed by the source A158E): as the sequence (chain, as listed by the source V156K) above, with K171V, A173E counted along it
Sequence of proapoA-I-H155E (chain, as listed by the source H155E): as the sequence (chain, as listed by the source V156K) above, with H170E, K171V counted along it
Sequence of proapoA-I-A154E (chain, as listed by the source A154E): as the sequence (chain, as listed by the source V156K) above, with A169E, K171V counted along it
Sequence of proapoA-I-D157K (chain, as listed by the source D157K): as the sequence (chain, as listed by the source V156K) above, with K171V, D172K counted along it

B1: LCAT (lecitin:cholesterol acyltransferase) (protein)
chain: FWLLNVLFPPHTTPKAELSNHTRPVILVPGCLGNQLEAKLDKPDVVNWMCYRKTEDFFTIWLDLNMFLPLGVDCWIDNTRVVYNRSSGLVSNAPGVQIRVPGFGKTYSVEYLDSSKLAGYLHTLVQNLVNNGYVRDETVRAAPYDWRLEPGQQEEYYRKLAGLVEEMHAAYGKPVFLIGHSLGCLHLLYFLLRQPQAWKDRFIDGFISLGAPWGGSIKPMLVLASGDNQGIPIMSSIKLKEEQRITTTSPWMFPSRMAWPEDHVFISTPSFNYTGRDFQRFFADLHFEEGWYMWLQSRDLLAGLPAPGVEVYCLYGVGLPTPRTYIYDHGFPYTDPVGVLYEDGDDTVATRSTELCGLWQGRQPQPVHLLPLHGIQHLNMVFSNLTLEHINAILLGAYRQGPPASPTASPEPPPPE
B1 showed an Apparent Vmax (LCAT activation by POPC-rHDL) (proapoA-I-A154E) of 3.5, an Apparent Vmax (LCAT activation by POPC-rHDL) (proapoA-I-H155E) of 2.6 and an Apparent Vmax (LCAT activation by POPC-rHDL) (proapoA-I-A158E) of 0.5. For the same protein, the Apparent Vmax (LCAT activation by POPC-rHDL) (wild-type (WT) proapoA-I) was 3.3, the Apparent Vmax (LCAT activation by POPC-rHDL) (proapoA-I-D157K) was 1.8 and the Apparent Vmax (LCAT activation by POPC-rHDL) (proapoA-I-V156K) was 0.3.
